Test results taken from article doi:10.1101/332304 (bioRxiv, 2018).

Target: T1, (NPNA)2 peptide (Plasmodium falciparum)
T1 chain: NPNANPNA
Experiment: ITC

B1: Fab311 inter-Fab contact residue reverted (Fab311R) (Fab, V domains shown)
VH: QVQLVESGGGVVPPGRSLRLSCATSGFTFSSYGMHWVRQAPGKGLEWVAIIWYDGSNKFYAASVKGRFTISRDNSKNTLYLQMNSLRVEDTAVYYCARAAYYDTSGYGDYWGQGTLVTVSS
VL: QSVLTQPPSVSGAPGQTVTISCTGGSSNIGAGYDVHWYQQLPGTAPKLLIYGNINRPSGVPDRFSGSKSGTSASLAITGLQAEDEADYYCQSYDSSLSGSWVFGGGTKLTVL
binding result: binds
